These results are taken from the supplement of paper PMC10567573.

± gives the standard deviation.

A short description of the series: protein stability index of a GFP-peptide fusion (GPS, HEK-293T) (PSI 1-6); higher = more stable.
[1] abbreviates: treatment: DMSO, c terminus: a fixed tail appended.
[2] abbreviates: treatment: MLN4924 1 uM, 8 h, c terminus: a fixed tail appended.
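Also: 24-mer peptide tiles fused after GFP, lentivirally expressed, FACS-sorted into six equal bins by GFP/DsRed ratio, decoded by Illumina sequencing, PSI is the read-weighted mean bin number.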

Regarding VSPGGVKLEISTKEVPVVHTETKT [EPB41L3], the protein stability index amounted to 4.88 ± 0.29 under setting [1] and 5 ± 0.3 under setting [2].

With VTGHTNIVDFLTHHAQTSKTERIN [FEM1C], the protein stability index is 3.45 ± 0.11 under setting [1] and 3.54 ± 0.19 under setting [2].

For the sequence VTLELSQLSMLPHLADLVSYSIQK [VDR], the protein stability index was 2.86 ± 0.52 under setting [1] and 2.91 ± 0.26 under setting [2].

For VVLCFSIANPNSLHHVKTMWYPEI [RHOBTB2], the protein stability index came out at 3.23 ± 0.42 under setting [1] and 3.16 ± 0.21 under setting [2].

In the case of VYKSLLLLAYLIRNGSERVVTSAR [CLINT1], the protein stability index reads like this: under setting [1], 2.57 ± 0.51; under setting [2], 2.59 ± 0.39.

Turning to WKALSEFALQSDLDQPAFQQLVSF [ISL2], the protein stability index reads like this: under setting [1], 2.21 ± 0.14; under setting [2], 2.31 ± 0.37.

Take WKEGRPRVEESGSKKEGKRQGPKE [PBXIP1]: the protein stability index is, setting by setting: under setting [1], 5.28 ± 0.46; under setting [2], 5.24 ± 0.12.

For WLPQQNAAYFLLSTNDKTVKLWKV [PPP2R2B], the protein stability index worked out at 2.53 ± 0.63 under setting [1] and 2.6 ± 0.8 under setting [2].

As for WSRLEEFDVFSPKQDLVPGSPDDS [DLC1], the protein stability index under setting [1] turned out to be 4.45 ± 0.27 and the protein stability index under setting [2] stood at 4.87 ± 0.38.

Regarding WTNRLCHQEMGSKKTVTQEDRGW [SPAG8], the protein stability index by setting is: (treatment: DMSO, c terminus: native) 3.08 ± 0.64; (treatment: MLN4924 1 uM, 8 h, c terminus: native) 2.79 ± 0.41.

Regarding WTPLHLACYFGHRQVVQDLLKAGA [OSBPL1A], the protein stability index stood at 2.61 ± 0.6 under setting [1] and 2.64 ± 0.48 under setting [2].

In the case of YAGNLHESGVHGALLALDENFDHN [PPFIA4], the protein stability index runs as follows: under setting [1], 3.26 ± 0.51; under setting [2], 3.7 ± 0.73.

On to YECNHCGKGFRHSSSLAQHQRKHA [ZNF8], for which the protein stability index runs as follows: under setting [1], 5.08 ± 0.32; under setting [2], 5.12 ± 0.28.

In the case of YEMTDLTNNKVYAAKIIPHSRVAK [PLK2], the protein stability index was 3.78 ± 0.092 under setting [1] and 4.05 ± 0.28 under setting [2].

Regarding YESSADIAGDEGTQIPADEDTQTD [TAF7L], the protein stability index was 5.61 ± 0.24 under setting [1] and 5.53 ± 0.24 under setting [2].

YEWARDHRAHHKFSETHADPHNSR [SCD] gave a protein stability index under setting [1] of 3.96 ± 0.28 and a protein stability index under setting [2] of 4.12 ± 0.18.

YFALRKILKQLIADVTLDPETAHP [TRIM39] yielded a protein stability index under setting [1] of 4.09 ± 0.2 and a protein stability index under setting [2] of 4.34 ± 0.21.

As for YKGELFDKTPVLLTDYPVDLDEIA [MYORG], the protein stability index stood at 3.73 ± 0.28 under setting [1] and 3.75 ± 0.16 under setting [2].

As for YMRYSRKVWDQVKASNPDLKLWEI [SMARCE1], the protein stability index stood at 2.18 ± 0.73 under setting [1] and 1.95 ± 0.066 under setting [2].

YPVTIGGKIVGSLCAIAGVLTIAL [KCNA1]: the protein stability index by setting is: under setting [1], 2.35 ± 0.21; under setting [2], 2.23 ± 0.16.

Regarding YSCQSKEILRYMKEFTLLLSAANV [P2RY14], the protein stability index was found to be 2.4 ± 0.45 under setting [1] and 2.26 ± 0.31 under setting [2].

YSLMKRQMMSATAQNREPESVEQL [SNX8]: the protein stability index by setting is: under setting [1], 4.37 ± 0.38; under setting [2], 4.48 ± 0.19.

With YSLVTHIPAGARDIQIVERKKSAD [ADAMTSL2], the protein stability index runs as follows: under setting [1], 4.37 ± 0.22; under setting [2], 4.67 ± 0.41.

As for YSSQLSQVQSLITNVESQLAEIRS [KRT33B], the protein stability index runs as follows: under setting [1], 3.49 ± 0.1; under setting [2], 3.66 ± 0.2.

YTDYVATRWYRAPELLVGDTQYGS [CDKL4]: the protein stability index runs as follows: under setting [1], 2.56 ± 0.7; under setting [2], 2.38 ± 0.34.

As to YTGRAPNLDKMADNLLAAADKYAL [SPOPL], the protein stability index turned out to be 2.78 ± 0.42 under setting [1] and 3.06 ± 0.5 under setting [2].

YVLKYMESNAAQYSPEALASIQNH [EFHC1]: the protein stability index under setting [1] worked out at 2.31 ± 0.14 and the protein stability index under setting [2] was 2.35 ± 0.24.

As for YYTMDPTQHVNNWMKHNVADSQIT [PTPRD], the protein stability index came out at 2.95 ± 0.31 under setting [1] and 2.93 ± 0.5 under setting [2].
